# Experimental data as given in the RNAGym collection of RNA variant scans (doi:10.1073/pnas.2313332121).
# This sample holds only a part of the variants without activity.
# B1: TPR 5TU (parent)
# chain: GGAUCUUCUCGAUCUAACAAAAAAGACAAAUCUGCCACAAAGCUUGAGAGCAUCUUCGGAUGCAGAGGCGGCAGCCUUCGGUGGCGCGAUAGCGCCAACGUUCUCAACUAUGACACGCAAAACGCGUGCUCCGUUGAAUGGAGUUUAUCAUG
# Variants of: B1
# Assay: polymerase ribozyme fitness, log enrichment relative to wild type (log ratio); higher = more active; in vitro selection for triplet polymerase activity
# In short: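 One round of in vitro selection, in triplicate, was applied to PCR-built, transcribed mutant libraries of each subunit of a heterodimeric triplet polymerase ribozyme. The steps were annealing with a biotinylated primer, partner subunit and triplets, incubation frozen at −7 °C, gel excision of extended constructs, streptavidin-bead capture and RT-PCR. Fitness is the logarithm, base 2, of genotype enrichment over wild-type enrichment from inverse-variance-weighted replicate averages of Illumina-sequenced inputs and outputs, keeping genotypes with ≥10 input reads and ≥1 read per output.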
row,Variant,polymerase ribozyme fitness (log ratio)
1,A26G C54G C57U C96U C132U,≤ -4.2
2,A26U A30C A49G G92C,≤ -4.2
3,G25U A28C G50C A52C C93G,≤ -4.2
4,G25U A29U C38U G70C,≤ -4.2
5,A24U C93U,-1.27
6,A24U A66C A73G C79G C87A G88U C116A C118A,≤ -4.2
7,G25U A49U G50C U61A C95U,-3.07
8,A26G A41G U53A G74A G141A,≤ -4.2
9,G25C A28C C32A A110G G126C,≤ -4.2
10,A26C G65C G84A A89C G141C,≤ -4.2
11,G25U G50U A73G U101G,-2.68
12,A26C C131U,-0.797
13,G25U C51U A73U C76U G83U C95U C96U G100U C118G A122G,≤ -4.2
14,G25A U44G U77A G83U U104A,≤ -4.2
15,A26C G94C,-1.54
16,A26C G94A,-1.36
17,G25U C36G A97G U109C,≤ -4.2
18,A24U C96G G143U A147U,-3.7
19,A26C C87A,≤ -4.2
20,A24U A91G A97G A115U,-4.19
21,G25C C99U C114G C118U,≤ -4.2
22,A24U U78C C87A,≤ -4.2
23,G25U C43U U61A G84U C85A A89U C93A C103A G141U,≤ -4.2
24,G25C C99U,-3.13

row,Variant,polymerase ribozyme fitness (log ratio)
1,A26G G50C A91G G117A C125U G140A G143C,≤ -4.2
2,A26C U61C C85A U151G,≤ -4.2
3,A26C A30G U45A A60G A97U U104G G143U,≤ -4.2
4,A24U G42A U53A U90G A107U C108A U145C,≤ -4.2
5,G25A A39G G68C C95U,≤ -4.2
6,A24U C54A,-0.922
7,A26G C32A C35A G59U U90C C93G U146G,≤ -4.2
8,A26G U53A,-4.06
9,G25A C54A G58A G84A A120G G126U,-3.36
10,G25C A52G U56A A60C G67A C99U C116U G133C U135A,≤ -4.2
11,A24U C57U G62A,-0.097
12,A26C G59U A60C U145A,-2.83
13,A24U U44A C57G G74U C76A G100A A138C,≤ -4.2
14,G25C A91U C96U C99A C108A A138G,≤ -4.2
15,A24U U44G A66C G143A,-4.09
16,A24U A47U C96U C116A G133A C149G,≤ -4.2
17,A24U A47U G50A G59U A60G C87U C103G U109A A110G,-4.01
18,A26G A41G A60U U90G C99A G143U U151C,≤ -4.2
19,G25A C85A C95U,-2.49
20,G25C C57U,-2.94
21,A24U A39U U56A G94A,-3.21
22,A24U U53A,-0.894
23,G25C U53G C57A A120C G128A,≤ -4.2
24,A26G A97G,-3.72

row,Variant,polymerase ribozyme fitness (log ratio)
1,A26C C38A G48U C63G C75U C87A C105A,≤ -4.2
2,A26C U56C G65A C75U A91U C96U,≤ -4.2
3,A24U A39U A89C,-4.16
4,A24U C27A G42C C75A U82G C96U C108A A138C,≤ -4.2
5,A26U A29U G62U C99U C125U U134A,-4.08
6,A24U G83C C99G,-4.19
7,G25U A37G C85A U148C,≤ -4.2
8,A24U A39G C51U C57A C85U C129G,≤ -4.2
9,G25U C87U,-2.63
10,A26C C123G G141U,-2.47
11,A26G G48C A49G A73G C76U G83C G92U U148C,≤ -4.2
12,G25U C36U C54G,-4.13
13,A26C U78C,-3.76
14,A24U G25C A37U G65C U90A C116G C131A G141C,≤ -4.2
15,A24U C35A U45G A47C G48C A64C C93G,≤ -4.2
16,G25C G46A G50U G83A C95A A97G U127G,≤ -4.2
17,A26C G58C A60U G71C C93G,≤ -4.2
18,A26C U33A G92C C105G,≤ -4.2
19,G25U C87U A122G,-3.5
20,G25A C79G U90A U104A G117U,≤ -4.2
21,A26C A29G C51U U53G G68A A142C A150G G152A,≤ -4.2
22,A26G C87G U127A C129G,≤ -4.2
23,G25C C54U C57U C75U G126A,-2.79
24,A24U A98G,0.444

row,Variant,polymerase ribozyme fitness (log ratio)
1,G25U A49U C93U A119C,-3.95
2,G25A A41U C43U C54U U55A G70A G92A G133U U139G,≤ -4.2
3,G25U G59U C93G C96U U134C,≤ -4.2
4,G25U G84U G117A,-3.67
5,G25U G92C A115G,-3.33
6,A26G C85G G88C C125U G136A,≤ -4.2
7,A24U C57A G83U A97U U146A,-1.51
8,A24U U31C C38U U82A G84A,0.365
9,G25C G48U U55A C85U A147C,-3.98
10,G25C A119C G136A,-3.75
11,A26C U61A,-3.34
12,A26C C27G A52C G80U A89G,≤ -4.2
13,A24U C27G C38U C87U A91G C93G G133U,≤ -4.2
14,G25U A28U G50A G83C C87G A89U A91G,≤ -4.2
15,A26C C32U G48C G143A,≤ -4.2
16,G25C U33G G59A U78A G92C C99A G100U U134A,≤ -4.2
17,A24U C96A,0.632
18,A26C G59A C76U G84U G88A G126A,≤ -4.2
19,A24U C114G,-3.34
20,G25C A28U C54U G83A C99U G124A,≤ -4.2
21,A26C A41U,-3.05
22,A24U G65U A91C U104A A110G G140A U144G,≤ -4.2
23,A26G C36G C57A G94U A142U G152C,≤ -4.2
24,A24U G84C C114U G140U,≤ -4.2

row,Variant,polymerase ribozyme fitness (log ratio)
1,G25A C87G A98U,≤ -4.2
2,A24U G34C U56A G84A G133A,-3.92
3,A24U C87G C96U,≤ -4.2
4,G25A C75A A91U,≤ -4.2
5,G25A C96G C99G G152U,≤ -4.2
6,A26G A37U C75U G92A G133C G143U,≤ -4.2
7,A24U C36U A60G G80A G94C,-3.57
8,A24U C38A,0.851
9,A24U C93U A98G C132U A142G,-4.17
10,A24U C57G G92U A147U,-0.341
11,A24U A47C G48C C85G A91G,≤ -4.2
12,G25A A49G C95U,-2.94
13,A26G G58C A60G U82C C93G A98U C103A C105G G143U,≤ -4.2
14,A26G C35U A37U C76A U78A,≤ -4.2
15,G25C G83A A107C U134G,≤ -4.2
16,A26G G68A C85G A120C,≤ -4.2
17,A24U U61A C93U U101C,-3.93
18,G25U G62A,-2.84
19,A24U A52C U56A A73G C93U,-3.52
20,G25A A40G C43U G62C C85U G86A C95A G133U,≤ -4.2
21,A26C G50A G67A G70C G83U C87U U90C,≤ -4.2
22,G25A G68U U78C A91G C114G,≤ -4.2
23,A24U C85A,-1.22
24,A24U C85G,-2.77

row,Variant,polymerase ribozyme fitness (log ratio)
1,A26C A39G G42U A60G U78C C93G G117A,≤ -4.2
2,G25C A41C C96G A110G U148C,≤ -4.2
3,A24U A40G C57A C96A C99U U134A,≤ -4.2
4,A26C C85G C118A,-3.99
5,G25U G68U G83U U104G A115C,≤ -4.2
6,G25A U31A C51U G81C G84U G152U,≤ -4.2
7,A24U A52U C95U,-1.25
8,G25U A98U,-3.03
9,A26G C93A G124A,-4.18
10,G25U U53A A91C G92A C105G G141C,≤ -4.2
11,G25C C57A G83A G86U C96G A106G U127G,≤ -4.2
12,G25U A52U U145C,-3.91
13,G25U A41U,-3
14,G25U A41G,-0.833
15,A24U G141A,0.58
16,A24U C36G U111C C116A,≤ -4.2
17,G25U G86A,-3.14
18,G25U G58U G84A,-2.21
19,G25C A37C C76A U101G U148G,≤ -4.2
20,G25U G58U C69A G71C G94U G100C,≤ -4.2
21,A26G A40C G68U,≤ -4.2
22,G25U U31A A64C U90A G124A,≤ -4.2
23,G25U G50U C76A C85U G86C G133C,≤ -4.2
24,G25U C116U A122U,-4.04

row,Variant,polymerase ribozyme fitness (log ratio)
1,A24U A40C A47U C69U C93U C118U U145A,-4.16
2,A24U C76A C85A,-1.65
3,A24U A39G U82A C95G U135A,-3.89
4,A24U C93U C125G G133A A142G A150U,≤ -4.2
5,A26C A60U U104C,-3.72
6,G25A C35U G50C G88U C118G U151G,≤ -4.2
7,G25C A64U C125G,≤ -4.2
8,A26C C27U C57A G68C C131G,≤ -4.2
9,G25U A26G C32G C85G A106G C129U G140C G143A,≤ -4.2
10,A26C G92U A106G,-0.538
11,A24U C35U C96U C105U A147G,-3.09
12,A26C U55G G59C,-2.72
13,A24U G50U G143C,-2.91
14,G25A U44G C85U A106C,≤ -4.2
15,A26U A39U G94U A113U A119G U127C G152C,≤ -4.2
16,A26G G46U A52G C116U G140C G143C,≤ -4.2
17,G25A A29C A40U G68C C93A A97U,≤ -4.2
18,G25A U33C C35A A73C A91G G117A C118U,≤ -4.2
19,G25C U44A A66G G71A A91U C131U C132G,≤ -4.2
20,A24U C79A,-4.12
21,A26C A29U C54G A91G A97U,≤ -4.2
22,G25C G42C C57U G70A C87A G143A,≤ -4.2
23,G25U C43U U53A C87A A91C G140A,≤ -4.2
